These are literature values, as cited in patent US20190262496A1, “Compositions and Methods for Collagen-Based Sutures and Antibacterial Coatings” (UNIVERSITY HOSPITALS CLEVELAND MEDICAL CENTER, priority 2016, published 2019).

For the series the following is noted: in vivo.

For the substance “PDGF-BB: platelet derived growth factor-BB”, the “half-life of the growth factor” value is recorded as “a few minutes”.
